Laboratory results reported in US20250051476A1 (ABDERA THERAPEUTICS, published 2025).
Changes are numbered by the printed parent chain. Names may count otherwise. One block for each binder: values may come before it.

Experiments:
human DLL3 on cells = target: T1, human DLL3 on cells (human, UniProt Q9NYJ7 27-618); assay: cell-based or functional assay
T1 sequence (looked up): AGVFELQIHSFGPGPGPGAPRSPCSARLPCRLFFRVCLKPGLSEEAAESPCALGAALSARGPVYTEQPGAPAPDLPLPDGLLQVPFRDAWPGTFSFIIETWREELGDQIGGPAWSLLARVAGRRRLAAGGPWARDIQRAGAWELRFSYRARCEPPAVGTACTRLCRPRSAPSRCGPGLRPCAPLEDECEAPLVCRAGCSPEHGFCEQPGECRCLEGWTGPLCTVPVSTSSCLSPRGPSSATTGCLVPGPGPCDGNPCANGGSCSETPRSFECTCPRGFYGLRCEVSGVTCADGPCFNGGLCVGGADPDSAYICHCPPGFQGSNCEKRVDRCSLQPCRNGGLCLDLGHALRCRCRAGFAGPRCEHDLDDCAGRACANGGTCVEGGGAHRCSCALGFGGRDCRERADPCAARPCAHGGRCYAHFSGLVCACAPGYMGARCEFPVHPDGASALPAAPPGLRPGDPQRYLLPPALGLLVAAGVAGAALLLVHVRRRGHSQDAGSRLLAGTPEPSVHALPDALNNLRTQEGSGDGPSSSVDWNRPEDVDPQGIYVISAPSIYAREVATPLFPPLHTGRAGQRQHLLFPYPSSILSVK

[1] = target: T2, hDLL3 EGF1-6 (aa 216-492) fused to mIgG2a CH2-CH3 Fc (human); assay: ELISA on coated hDLL3 EGF1-6-mIgG2a Fc (2 ug/ml), anti-hIgG-Fc-HRP, A450
T2 construct: also called DLL3 EGF1-6(mIgG2aCH2-CH3); hDLL3 EGF domain construct
T2 chain: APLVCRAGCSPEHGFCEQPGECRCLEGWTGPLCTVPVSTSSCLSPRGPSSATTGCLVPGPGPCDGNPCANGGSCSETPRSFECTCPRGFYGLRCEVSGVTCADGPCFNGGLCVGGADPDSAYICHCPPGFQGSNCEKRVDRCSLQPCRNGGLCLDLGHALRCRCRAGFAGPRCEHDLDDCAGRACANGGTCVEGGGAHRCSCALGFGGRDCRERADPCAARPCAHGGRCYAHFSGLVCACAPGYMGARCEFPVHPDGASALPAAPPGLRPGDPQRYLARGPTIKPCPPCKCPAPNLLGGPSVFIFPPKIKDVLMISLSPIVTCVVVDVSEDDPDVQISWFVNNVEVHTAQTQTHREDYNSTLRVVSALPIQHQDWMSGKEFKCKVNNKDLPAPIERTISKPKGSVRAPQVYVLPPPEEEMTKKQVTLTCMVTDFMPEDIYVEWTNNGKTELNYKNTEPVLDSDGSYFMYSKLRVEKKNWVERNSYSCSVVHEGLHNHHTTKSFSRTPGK

[2] = target: T3, DLL3 on cells (SHP-77, NCI-H82, HEK-DLL3, membrane proteome array cells) (human, UniProt Q9NYJ7 27-618); assay: flow cytometry on SHP-77 cells, Geomeans RL1-H
T3 construct: whole, on cells; also called hDLL3
T3 sequence (looked up): T1 sequence (looked up)

[3] = target: T3, DLL3 on cells (SHP-77, NCI-H82, …); assay: flow cytometry on SHP-77 cells, Geomeans RL1-H; remark: listed apart in the source
[4] = target: T3, DLL3 on cells (SHP-77, NCI-H82, …); assay: flow cytometry on SHP-77 cells, Geomeans RL1-H; p-SCN-Bn-DOTA conjugate against the unconjugated VHHFc

H435Q-Fc SHP-77 Internalization FOI (human DLL3 on cells): 1.19 FOI
B1: Clone 126 VHH-Fc with H435Q Fc (Fc fusion)
chain: QVQLVESGGGMVQPGGSLRLSCAASGITFSMYSMSWYRQPPGKQRELVAATTTFGSTNYADSVKGRFTISRDNAKNTVYLQMNSLKPEDTAVYLCNARFTSEEYWGQGTQVTVSSAPELLGGPSVFLFPPKPKDTLMISRTPEVTCVVVDVSHEDPEVKFNWYVDGVEVHNAKTKPREEQYNSTYRVVSVLTVLHQDWLNGKEYKCKVSNKALPAPIEKTISKAKGQPREPQVYTLPPSREEMTKNQVSLTCLVKGFYPSDIAVEWESNGQPENNYKTTPPVLDSDGSFFLYSKLTVDKSRWQQGNVFSCSVMHEALHNQYTQKSLSLSPG

binding result [1]: binds
B2: 100 (Fc fusion)
VHH-Fc chain: QVQLVESGGGSVQPGGSLRLSCAASGIVFNSDVMGWYRQVPGKPRELVATITGGGSTNYATSVKGRFTISRDNAKNTVYLQMNSLRPEDTAVYYCNGRRGDSMLAFWAQGTQVTVSS
notes: same clone as 1.m44, 2.m24, 3.m26, 3.m53, 4.m7; also called Clone 100

EC50 (read off the curve) [2]: ~0.1 nM
EC50 (read off the curve) [3]: ~0.1 nM
B3: 126 (Fc fusion)
chain: QVQLVESGGGMVQPGGSLRLSCAASGITFSMYSMSWYRQPPGKQRELVAATTTFGSTNYADSVKGRFTISRDNAKNTVYLQMNSLKPEDTAVYLCNARFTSEEYWGQGTQVTVSSEPKSSDKTHTCPPCPAPEAEGAPSVFLFPPKPKDTLMISRTPEVTCVVVDVSHEDPEVKFNWYVDGVEVHNAKTKPREEQYNSTYRVVSVLTVLHQDWLNGKEYKCKVSNKALPSSIEKTISKAKGQPREPQVYTLPPSREEMTKNQVSLTCLVKGFYPSDIAVEWESNGQPENNYKTTPPVLDSDGSFFLYSKLTVDKSRWQQGNVFSCSVMHEALHNQYTQKSLSLSPG
notes: Parental camelid VHH-Fc

EC50 (read off the curve) [4]: ~0.2 nM
B4: 126 Conjugate (Fc fusion)
chain: B3 chain
modifications: conjugated to p-SCN-Bn-DOTA, chelator-antibody ratio of 3-5 (lysine-based conjugation)

H435Q-Fc SHP-77 Internalization FOI (human DLL3 on cells): 1.19 FOI
B5: Clone 100 VHH-Fc with H435Q Fc (Fc fusion)
chain: QVQLVESGGGSVQPGGSLRLSCAASGIVFNSDVMGWYRQVPGKPRELVATITGGGSTNYATSVKGRFTISRDNAKNTVYLQMNSLRPEDTAVYYCNGRRGDSMLAFWAQGTQVTVSSAPELLGGPSVFLFPPKPKDTLMISRTPEVTCVVVDVSHEDPEVKFNWYVDGVEVHNAKTKPREEQYNSTYRVVSVLTVLHQDWLNGKEYKCKVSNKALPAPIEKTISKAKGQPREPQVYTLPPSREEMTKNQVSLTCLVKGFYPSDIAVEWESNGQPENNYKTTPPVLDSDGSFFLYSKLTVDKSRWQQGNVFSCSVMHEALHNQYTQKSLSLSPG

H435Q-Fc SHP-77 Internalization FOI (human DLL3 on cells): 1.18 FOI
B6: Clone 186 VHH-Fc with H435Q Fc (Fc fusion)
chain: QVQVVESGGGLVQPGGSLTLSCAASGFDFSTYTVNWYRQAPGKEREKVARISSTGTTTNYANSAKGRFTLSRDNAKNRVYLQMNNLKPEDTAVYFCNFERFDSNYWGQGTQVTVSSAPELLGGPSVFLFPPKPKDTLMISRTPEVTCVVVDVSHEDPEVKFNWYVDGVEVHNAKTKPREEQYNSTYRVVSVLTVLHQDWLNGKEYKCKVSNKALPAPIEKTISKAKGQPREPQVYTLPPSREEMTKNQVSLTCLVKGFYPSDIAVEWESNGQPENNYKTTPPVLDSDGSFFLYSKLTVDKSRWQQGNVFSCSVMHEALHNQYTQKSLSLSPG

binding result [4]: binds
B7: 186_zu2 conjugated to p-SCN-Bn-DOTA (Fc fusion)
chain: QVQLVESGGGLVQPGGSLRLSCAASGFDFSTYTVNWFRQAPGQGLEKVARISSTGTTTNYANSAKGRFTISRDNSKNTLYLQMNSLRAEDTAVYYCAAERFDSNYWGQGTLVTVSSEPKSSDKTHTCPPCPAPEAEGAPSVFLFPPKPKDTLMISRTPEVTCVVVDVSHEDPEVKFNWYVDGVEVHNAKTKPREEQYNSTYRVVSVLTVLHQDWLNGKEYKCKVSNKALPSSIEKTISKAKGQPREPQVYTLPPSREEMTKNQVSLTCLVKGFYPSDIAVEWESNGQPENNYKTTPPVLDSDGSFFLYSKLTVDKSRWQQGNVFSCSVMHEALHNQYTQKSLSLSPG
modifications: conjugated to p-SCN-Bn-DOTA, chelator-antibody ratio of 3-5; lysine in FW2 (printed position 52)
notes: Humanized VHHFc conjugate

EC50 (read off the curve) [4]: ~0.3 nM
B8: 186_zu1 conjugated to p-SCN-Bn-DOTA (Fc fusion)
chain: B7 chain with K47A
modifications: conjugated to p-SCN-Bn-DOTA, chelator-antibody ratio of 3-5
notes: Humanized VHHFc conjugate

H435Q-Fc SHP-77 Internalization FOI (human DLL3 on cells): 1.27 FOI
B9: Clone 107 VHH-Fc with H435Q Fc (Fc fusion)
chain: QVQLVESGGGLVQAGDSLRLSCVASDRTFSSYAVGWFRQAPGKEREFVAAISWNGGRTLYTDSVTGRFTISRDNAKSTVYLQMNGLKPEDTAVYYCAARPAAPTRRLEYDYWGQGTQVTVSSAPELLGGPSVFLFPPKPKDTLMISRTPEVTCVVVDVSHEDPEVKFNWYVDGVEVHNAKTKPREEQYNSTYRVVSVLTVLHQDWLNGKEYKCKVSNKALPAPIEKTISKAKGQPREPQVYTLPPSREEMTKNQVSLTCLVKGFYPSDIAVEWESNGQPENNYKTTPPVLDSDGSFFLYSKLTVDKSRWQQGNVFSCSVMHEALHNQYTQKSLSLSPG

H435Q-Fc SHP-77 Internalization FOI (human DLL3 on cells): 1.19 FOI
B10: Clone 24 VHH-Fc with H435Q Fc (Fc fusion)
chain: QVQYVESGGGLVQPGGSLRLSCAASGFTFSSYRINWYRQPPGKGRELVGSITDTGSTNYADSVKGRFTISRDNAKNTVYLQMSSLKPEDTAVYYCRAPTIAAYWGQGTQVTVSSAPELLGGPSVFLFPPKPKDTLMISRTPEVTCVVVDVSHEDPEVKFNWYVDGVEVHNAKTKPREEQYNSTYRVVSVLTVLHQDWLNGKEYKCKVSNKALPAPIEKTISKAKGQPREPQVYTLPPSREEMTKNQVSLTCLVKGFYPSDIAVEWESNGQPENNYKTTPPVLDSDGSFFLYSKLTVDKSRWQQGNVFSCSVMHEALHNQYTQKSLSLSPG

binding result [4]: binds
B11: 126_zu1 Conjugate (Fc fusion)
chain: QVQLVESGGGLVQPGGSLRLSCAASGITFSMYSMSWFRQAPGQGLEAVAATTTFGSTNYADSVKGRFTISRDNSKNTLYLQMNSLRAEDTAVYYCAARFTSEEYWGQGTLVTVSSEPKSSDKTHTCPPCPAPEAEGAPSVFLFPPKPKDTLMISRTPEVTCVVVDVSHEDPEVKFNWYVDGVEVHNAKTKPREEQYNSTYRVVSVLTVLHQDWLNGKEYKCKVSNKALPSSIEKTISKAKGQPREPQVYTLPPSREEMTKNQVSLTCLVKGFYPSDIAVEWESNGQPENNYKTTPPVLDSDGSFFLYSKLTVDKSRWQQGNVFSCSVMHEALHNQYTQKSLSLSPG
modifications: conjugated to p-SCN-Bn-DOTA, chelator-antibody ratio of 3-5 (lysine-based conjugation)

EC50 (read off the curve) [4]: ~0.1 nM
B12: 126_zu2 Conjugate (Fc fusion)
chain: B11 chain with A47L
modifications: conjugated to p-SCN-Bn-DOTA, chelator-antibody ratio of 3-5 (lysine-based conjugation)

binding result [1]: binds
B13: 107 (Fc fusion)
VHH-Fc chain: QVQLVESGGGLVQAGDSLRLSCVASDRTFSSYAVGWFRQAPGKEREFVAAISWNGGRTLYTDSVTGRFTISRDNAKSTVYLQMNGLKPEDTAVYYCAARPAAPTRRLEYDYWGQGTQVTVSS
notes: same clone as 1.m45, 2.m28, 3.m30, 3.m55, 4.m13

EC50 (read off the curve) [4]: ~0.1 nM
B14: 107_zu2 Conjugate (Fc fusion)
chain: QVQLVESGGGLVQPGGSLRLSCAASDRTFSSYAVGWFRQAPGQGLEFVAAISWNGGRTLYTDSVTGRFTISRDNSKNTLYLQMNSLRAEDTAVYYCAARPAAPTRRLEYDYWGQGTLVTVSSEPKSSDKTHTCPPCPAPEAEGAPSVFLFPPKPKDTLMISRTPEVTCVVVDVSHEDPEVKFNWYVDGVEVHNAKTKPREEQYNSTYRVVSVLTVLHQDWLNGKEYKCKVSNKALPSSIEKTISKAKGQPREPQVYTLPPSREEMTKNQVSLTCLVKGFYPSDIAVEWESNGQPENNYKTTPPVLDSDGSFFLYSKLTVDKSRWQQGNVFSCSVMHEALHNQYTQKSLSLSPG
modifications: conjugated to p-SCN-Bn-DOTA, chelator-antibody ratio of 3-5 (lysine-based conjugation)

binding result [1]: binds
B15: 24 (Fc fusion)
VHH-Fc chain: QVQYVESGGGLVQPGGSLRLSCAASGFTFSSYRINWYRQPPGKGRELVGSITDTGSTNYADSVKGRFTISRDNAKNTVYLQMSSLKPEDTAVYYCRAPTIAAYWGQGTQVTVSS
notes: same clone as 1.m43, 2.m5, 3.m7, 3.m51, 4.m1; also called Clone 24
